The supplement of paper PMC12042874
± gives the uncertainty stated by the source.

Experiment: amyloid nucleation score (Sup35N fusion, yeast selection) (log enrichment); library NNK3; higher = more nucleation; inactive = no reads after selection
In short: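 Yeast lacking psi expressed peptides of 20 random codons fused to Sup35N, received 100 μM copper sulfate for 24 hours, and were then grown for 7 days at 30°C on medium lacking adenine and uracil. Illumina sequencing of input and output plasmid inserts provided the reads. Nucleation scores are DiMSum log enrichments of output over input, centred on the mode of non-aggregating sequences. Any sequence with under 100 input reads was excluded.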

Row | Substance | amyloid nucleation score
1 | ILNTCYISHFPFQL | 2.33 ± 0.087
2 | PWGPW | inactive
3 | ERKVCAG | inactive
4 | CELYHMNRDF | inactive
5 | YSSVTTIVVPSLNAYILNCR | inactive
6 | YARYNTLVLSAKPPLLYDSW | inactive
7 | FFRIVSLCSSPGNGEDKDRL | inactive
8 | LHTMGMSVGGMAMNKIDCPN | inactive
9 | FNFLVWAQ | inactive
10 | NLVWFHIATEVIERNVGGGN | inactive
11 | GCTDIHASEH | inactive
12 | RTWSAKGYDNIRDVGLNSES | inactive
13 | NLVRFLLKFMVKEYLRFTYI | inactive
14 | TRSCDRYRALYSLLFTTGSM | inactive
15 | YNKGFALIRIVRQTERRLHT | inactive
16 | TRRGHHCQFLVSGSGIAL | inactive
17 | NFCNLLFR | inactive
18 | NGSLREKSGSVCKRIL | inactive
19 | NSFLRVIVC | inactive
20 | RLWHLLFLHNRYHVVFNSIL | inactive
21 | FKYLWADREVNVGQKHSVIG | -0.174 ± 0.7
22 | KPMVYFQLRRLSKKVIYCAM | inactive
23 | WWFLGGRSRGDRGILMVDVA | 0.214 ± 0.53

Row | Substance | amyloid nucleation score
24 | TGYWRIFSCSCLIVCVRLSV | inactive
25 | VCSHGFCACCRNNKDETWCD | -0.331 ± 0.66
26 | VCCCHLCL | 0.17 ± 0.56
27 | IMEIMVNTWGNVTVRNSWRL | 1.23 ± 0.14
28 | ADNKLANWSGAVREWEVRRV | -0.523 ± 0.95
29 | GLTLRRWINAFHRHVGNKGQ | 0.592 ± 0.24
30 | NYDRYCANIMYTAMCIRLLW | inactive
31 | DVMSILLTNVMLSKSALELS | inactive
32 | YSQLCFF | inactive
33 | FKAPWLSGP | inactive
34 | PYAPVWKRGRNYFTNSFLYM | inactive
35 | RFTSVILNTSDLSKLRMGTE | 0.437 ± 0.31
36 | DTTFMQYVAIYVLVSKLFIE | inactive
37 | EYNPWFDCWICSEVSATNNR | 1.96 ± 0.077
38 | PFMCGRAIRLSFREFTRLKN | inactive
39 | SMINKRR | 1.16 ± 0.15
40 | NRYYPVGNYCARTWQTFTFL | inactive
41 | DGMTMFLSYN | -0.208 ± 1.1
42 | RMNMCMWLAWDSPWYIMGY | inactive
43 | VRNKLNCKRSGA | inactive
44 | YKNSWLKW | inactive
45 | PFWKLKQKWVR | -1.1 ± 1.9
46 | SQYIWFFSVVLSFFSSVSWC | -0.021 ± 0.85

Row | Substance | amyloid nucleation score
47 | SIFFIKTYESFDSSLFKSSS | inactive
48 | YRILTGLSLSFRVCIYFVW | inactive
49 | YVDLAGLMLMADMA | inactive
50 | NSKGMI | inactive
51 | FIRGVSYDFIDRSIILFLEV | inactive
52 | RVHFVYIRWFYVRRDGWFSG | inactive
53 | SSITVF | inactive
54 | MGIQKTDRWRLWYYYWMREN | inactive
55 | GCLRDPTVAQVDYLGYGVRL | inactive
56 | LFNGSSFITCSRTLGVL | inactive
57 | FEWFQCIYA | inactive
58 | AICSPTLLDYYFLFKVLPGS | inactive
59 | VRYVNGSKCTFNLS | inactive
60 | VGRRDN | inactive
61 | RGSGILRVLTKSRWCICMGT | inactive
62 | LFPLMKQYLARGFSQDIRSA | inactive
63 | ECRYIPLYREFTRRVSMSGL | inactive
64 | WVIRELTWITWIVLADLS | inactive
65 | TGCSSF | inactive
66 | VWVLHRRRSKYMQVTVWLDL | inactive
67 | LRLVKYNAGIHYGSVGPQFL | inactive
68 | EWPVNTNVYFCFMYTANFNT | 2.63 ± 0.055
69 | LLAMPNQRWGTTLLYVQDWF | inactive

Row | Substance | amyloid nucleation score
70 | IWKGCSACFGKD | -0.222 ± 1.2
71 | LLKLRIQIKVWTS | inactive
72 | RTRFFSQFSSL | inactive
73 | GNDNYVVLFNCDV | inactive
74 | VNYRTQRRTQYTQCTRKVGG | inactive
75 | LSNGDAKTSRTASVRCLRYA | inactive
76 | CGCCHVVVNSWW | 2.65 ± 0.062
77 | LQTVNLLVPACI | inactive
78 | PIIFNFLRIM | 1.7 ± 0.058
79 | QFCSI | inactive
80 | PVFQLNNFTYMRVPCLRGLN | inactive
81 | GGCHNGCGFYCRRN | inactive
82 | IQDLEASRFGSIVIALDNCS | inactive
83 | SWRHSCNTRSNDYNIDWE | inactive
84 | LKSWDTIWVEDNYSLC | -0.148 ± 0.81
85 | STDNVGMGKGWTGVIGWRVM | inactive
86 | MVSNNGFIRSLVENPTPIQD | inactive
87 | TTTLDSQSNNMFGAS | inactive
88 | ALTHHVVYLMAGKNVTTS | inactive
89 | MMGTSWDWRYRYLRLRGEEC | inactive
90 | GLDRRKICKLHGYGNS | inactive
91 | FYVRVALRVSLLLWSGFTWV | inactive
92 | CASPSGFSSQGVTWFVEV | inactive

Row | Substance | amyloid nucleation score
93 | SVSRFKWGFKQAQWDKQRRY | inactive
94 | DSWTAACAHSR | inactive
95 | LGNTCKIDWRISYHMTPSDI | inactive
96 | LNCATFHYLTAVILMEYCRT | inactive
97 | LKLYDGSFAFLKCTSFMFNG | 1.19 ± 0.17
98 | GCRYQGHCHVYYLAERIACD | inactive
99 | CNISSFNT | inactive
100 | YYNSGSLNTYPVNLNLDNFH | inactive
101 | CSRIRLMGFDWLAPIPHA | inactive
102 | AMLLCTYFRKAVYLNAK | inactive
103 | LSMDLPNQSLDKVSKRHSAN | inactive
104 | GAFRTFYMLMWSYLCISGSV | inactive
105 | GSVRNSDKKWVPIVVYIPLQ | inactive
106 | DATRSCLWMYAIVYNACIGH | inactive
107 | LSLHEGWSVNCVFCLLLTVW | 2.42 ± 0.077
108 | AVIRFCPGRNSESDSRAHRP | inactive
109 | QIPSGVVCGMNGYCLGAVTR | inactive
110 | RDYYGVLLNLCLHHFWLHW | inactive
111 | HMDSWSYWVIVV | inactive
112 | SLFRNS | inactive
113 | IVLYRKVRPCTWAE | inactive
114 | IRLFAVTAYSIVTYVRFMIG | inactive
115 | RQLMRSDPAMGTICERY | inactive

Row | Substance | amyloid nucleation score
116 | MSNMWKEYALALVVGLSFRL | inactive
117 | LMSTKVVFEL | 0.076 ± 0.19
118 | LYLNEYELTLEAKRDYMNMR | inactive
119 | FDSQGEPVPKPSAMMRGRMC | inactive
120 | LNADVTMLKSNGVMTIT | inactive
121 | EVKAMTWLVIVETIVFMS | inactive
122 | FCNCNMFYDLCLCAHGMPSA | 2.99 ± 0.067
123 | NVALRAGSREG | inactive
124 | LLIQNV | inactive
125 | RFIEKTSKIMSPDAYPSLKY | inactive
126 | AIVFGGNAQKSHTHDTGAMG | inactive
127 | IKIMHLSQPMDSMSLLHHG | inactive
128 | ARSARGLGQRYLLYMYCLWL | inactive
129 | ADLGATAAINQKAWVGDQ | inactive
130 | YNYFFPYTNVYNIFSIYKAV | 3.6 ± 0.078
131 | DRVKACARFGRW | inactive
132 | RFMSCMGFPHRCHGSSRYVG | inactive
133 | FWNEVMNRLPGLL | inactive
134 | ITFVYSS | inactive
135 | VYQLIYVTGCQNAVRE | 0.674 ± 0.32
136 | PRLTFSVVVRFCIHTLCLLK | inactive
137 | VFRLLVDKYCGFSPVGLPDV | inactive
138 | YTGSMAGSTYLTGKLSLDDR | inactive

Row | Substance | amyloid nucleation score
139 | SCGLGLLAVVEKCVVTHRFF | inactive
140 | LIFALRFSLSVSCSCAKCFR | inactive
141 | VEAMQVWDSSFMSCTNLFTS | inactive
142 | VGLIWVVSFIDKNSYGWSGT | inactive
143 | FVSKHRVSTIWRVISHMRGG | -0.257 ± 0.98
144 | TLAPKYFYFFVKDVFGTSYC | 1.54 ± 0.093
145 | LEYDRTFKILFCGGSGWHYS | inactive
146 | GRVSYCITRME | inactive
147 | SCLRGNTAKFFSKVSRVCDK | 0.133 ± 0.98
148 | ISFNFHSSSTGRA | 1.38 ± 0.11
149 | TSVLSTGCYTRTVTNVNGSI | inactive
150 | VKTKPFHLRYR | inactive
151 | SYCYSIAMLAMIFLLMQCVI | -0.011 ± 0.43
152 | SIIIIISCFGVQNVWFAEMM | 0.405 ± 0.3
153 | ERIVPA | inactive
154 | STLQVVEKPKIAPSLRCDSC | -0.169 ± 0.51
155 | IYWLSDN | inactive
156 | GCTCQ | 1.21 ± 0.15
157 | FVWLWVVISLNCSNNEFVFN | 2.51 ± 0.061
158 | IAVPRWKDSDTQKVV | inactive
159 | CAWVHIS | inactive
160 | EVFEWSVRLFSTL | inactive
